Experimental data as given in patent US20200216522A1 (DENALI THERAPEUTICS, published 2020).
Residue numbers refer to the chain shown, from its start. Values joined by “and” are separate entries in the source; they are usually repeats but may differ in a detail not shown here. Equal entries are not always repeated.

B1: chimeric IgG clone 1C7 (antibody, V domains shown)
VH: EVKLVESGGGLVKPGGSLKLSCAASGFTFSSYGMSWVRQTPEKRLEWVASISGDGGSYIHYADSVKGRFTISRDSAKNTLYLQMSSLRSEDTALYYCARLPYWGQGTLVTVSA
VL: DIVMTQSPSSLTVTAGEKVTMSCKSSQSLLNSGNQKNYLTWYQQKPGQPPKLLIYWASTRESGVPDRFTGSGSGTDFTLTISNVQSEDLAEYFCQQYNSYPLTFGAGTKLELKR
notes: mouse-human chimeric IgG from HEK293; also called 1C7.IgG; anti-Tau^1C7
B2: Clone 1A1 Fab (Fab, V domains shown)
VH: EVQLQQSGAELVRPGASVRLSCTASGFNIKDSLMHWLKQRPEQGLEWIGWIDPEDGETKYAPKFQDKATITADTSSNTAYLQLSSLTSEDTAIYYCTRRDWEGPWGQGTLVTVSA
VL: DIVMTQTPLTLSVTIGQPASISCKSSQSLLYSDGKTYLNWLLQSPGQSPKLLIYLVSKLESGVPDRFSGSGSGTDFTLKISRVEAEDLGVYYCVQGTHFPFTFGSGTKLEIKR
notes: crude periplasmic Fab; mouse V regions joined to human CH1 and human kappa constant
B3: Clone 1G7 Fab (Fab, V domains shown)
VH: B2 VH with L11V, R19K, A24T, E89G, T97A
VL: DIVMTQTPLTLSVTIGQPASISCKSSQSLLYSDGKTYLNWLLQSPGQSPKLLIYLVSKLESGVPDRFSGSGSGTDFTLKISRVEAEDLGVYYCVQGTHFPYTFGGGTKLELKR
notes: as for B2
B4: Clone 1C7 Fab (Fab, V domains shown)
VH: B1 VH
VL: B1 VL
notes: as for B2
B5: Clone 1A5 Fab (Fab, V domains shown)
VH: EVQLQQSGAELVRPGASVKLSCTASGFNIKDSLIHWVKQRPEQGLEWIGWIDPEDGETKYAPKFQDKATKTADTSSNTAYLQLSSLTSEDTAIYYCASGEWDYWGQGTSVTVSS
VL: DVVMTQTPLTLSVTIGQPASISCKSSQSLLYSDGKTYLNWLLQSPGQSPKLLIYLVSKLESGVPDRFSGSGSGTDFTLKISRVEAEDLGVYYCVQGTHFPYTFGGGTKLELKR
notes: as for B2
B6: Clone 1D10 Fab (Fab, V domains shown)
VH: EVQLQQSGAELVRPGASVKLSCTASGFNIKDSLMHWMKQRPEQGLEWIGWIDPEDGETKYAPKFQDKATLTADTSSNAAYLQLSSLTSEDTAIYYCVRGDWDGGYWGQGTTLTVSS
VL: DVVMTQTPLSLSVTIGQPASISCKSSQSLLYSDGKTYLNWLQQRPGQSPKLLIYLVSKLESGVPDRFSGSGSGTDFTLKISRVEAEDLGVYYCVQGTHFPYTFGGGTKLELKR
notes: as for B2

What follows are binders tested against T1, full-length human Tau (Tau441; 2N4R), recombinant (human, UniProt P10636 1-758) (assay: Octet binning on biotin-r-Tau; row antibody Ab107 (anti-BACE1 control)).
T1 construct: made in E. coli, His6-Smt3 tag removed; biotinylated through amines for Octet and phage work; also called r-Tau; recombinant Tau
T1 sequence (P10636 other isoform, or with tags, fused parts or gaps limits assumed): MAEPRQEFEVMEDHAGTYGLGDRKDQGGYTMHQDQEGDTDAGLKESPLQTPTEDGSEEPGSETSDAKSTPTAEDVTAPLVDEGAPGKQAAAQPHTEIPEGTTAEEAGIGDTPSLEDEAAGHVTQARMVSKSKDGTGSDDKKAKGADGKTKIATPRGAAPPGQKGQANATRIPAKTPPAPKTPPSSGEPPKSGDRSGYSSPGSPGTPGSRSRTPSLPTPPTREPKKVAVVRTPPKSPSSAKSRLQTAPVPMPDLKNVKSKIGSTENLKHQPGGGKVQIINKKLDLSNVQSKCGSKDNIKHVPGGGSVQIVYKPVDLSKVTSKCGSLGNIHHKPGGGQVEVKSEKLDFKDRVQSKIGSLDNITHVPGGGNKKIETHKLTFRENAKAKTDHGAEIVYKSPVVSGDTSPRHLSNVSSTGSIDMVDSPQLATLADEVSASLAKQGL
Method: (§1) Epitope binning assays were performed using a FortéBio® Octet® RED384 instrument using FortéBio® Streptavidin biosensors. Biotinylated recombinant Tau was diluted to a concentration of 2 μg/mL in kinetic buffer (obtained from FortéBio®) and captured onto individual biosensors for 1 minute. A baseline was then established for 1 minute in kinetic buffer. The loaded biosensors were dipped into 10 μg/mL of the first chimeric IgG antibody until signal saturation, followed by dipping into 1 μg/mL of a second antibody. The binding for the second antibody was normalized to its total binding in the absence of the first antibody.

normalized binding of second antibody | Binder
1 | B1

These binders were tested against T2, C-terminal truncated human Tau (Tau(1-421)) (human, UniProt P10636 1-738) (assay: Fab ELISA).
T2 construct: also called 1-421 (2N4R)
T2 sequence (P10636 other isoform, or with tags, fused parts or gaps limits assumed): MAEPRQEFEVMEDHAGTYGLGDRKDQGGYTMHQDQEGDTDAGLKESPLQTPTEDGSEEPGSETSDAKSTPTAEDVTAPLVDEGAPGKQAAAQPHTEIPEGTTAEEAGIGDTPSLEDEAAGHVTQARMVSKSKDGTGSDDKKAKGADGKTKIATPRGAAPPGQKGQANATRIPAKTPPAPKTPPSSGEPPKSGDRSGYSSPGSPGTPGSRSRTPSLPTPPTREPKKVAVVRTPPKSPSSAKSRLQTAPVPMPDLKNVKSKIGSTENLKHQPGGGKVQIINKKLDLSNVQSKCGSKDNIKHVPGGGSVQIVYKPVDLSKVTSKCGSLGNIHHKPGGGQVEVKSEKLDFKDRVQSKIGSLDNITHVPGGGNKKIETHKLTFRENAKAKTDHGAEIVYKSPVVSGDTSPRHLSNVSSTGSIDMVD
Method: (§2) Half-area ELISA plates (Costar™) were coated overnight at 4° C. with 25 μL per well of 0.5 μg/mL r-Tau or p-Tau. The plates were washed three times with PBST using a BioTek® plate washer. The plates were then blocked for one hour at room temperature with 100 μL per well of PBSA. After washing three times with PBST, the periplasmically-expressed Fabs were added ([…]) and the plates were incubated for one hour. The plates were subsequently washed three times with PBST, and 25 μL per well of PBSA containing a 1:5,000 dilution of HRP-conjugated rabbit anti-human kappa (obtained from Bethyl Laboratories) was added. The plates were incubated at room temperature for 30 minutes, then washed three times with PBST. The plates were developed by adding 25 μL per well of TMB substrate (obtained from Thermo Fisher) and quenched with 2N H₂SO₄. The signal was quantified on a BioTek® plate reader at A₄₅₀. Wells with signal greater than 5-fold over background for both r-Tau and p-Tau were considered positive and the clones were re-arrayed from the primary culture for confirmation of binding (by repeat of ELISA) and sequencing of the variable regions.
(§3) ELISAs were performed essentially as described above, but coating was performed using 1 μg/mL of each recombinant Tau species and using a 1:1 dilution (in PBS with 0.1% BSA, 0.05% Tween®) of Fab containing supernatant. The results of the ELISAs, showing Fab binding to cyno Tau and mouse Tau, as well as binding to phosphorylated full-length human Tau and the human Tau isoforms, are shown in Table 1 below.

A450 avg. | Binder
1.52 | B2
1.23 | B3
2.12 | B4
1.64 | B5
0.806 | B6

Each binder was assayed against T3, hyperphosphorylated recombinant human Tau441 (p-Tau) (human, UniProt P10636 1-758, phosphorylated in vitro with PKA and GSK3beta; sites not listed) (assay: Fab ELISA).
T3 construct: also called p-Tau (2N4R); phosphorylated r-Tau
Method: as §2, §3

A450 avg. | Binder
2.09 | B2
1.61 | B3
2.24 | B4
2.08 | B5
1.19 | B6

The binders below were run against human Tau splice isoform 1N4R (Tau412) (human, UniProt P10636 1-758) (assay: Fab ELISA).
Chain of human Tau splice isoform 1N4R (Tau412) (P10636 other isoform, or with tags, fused parts or gaps limits assumed): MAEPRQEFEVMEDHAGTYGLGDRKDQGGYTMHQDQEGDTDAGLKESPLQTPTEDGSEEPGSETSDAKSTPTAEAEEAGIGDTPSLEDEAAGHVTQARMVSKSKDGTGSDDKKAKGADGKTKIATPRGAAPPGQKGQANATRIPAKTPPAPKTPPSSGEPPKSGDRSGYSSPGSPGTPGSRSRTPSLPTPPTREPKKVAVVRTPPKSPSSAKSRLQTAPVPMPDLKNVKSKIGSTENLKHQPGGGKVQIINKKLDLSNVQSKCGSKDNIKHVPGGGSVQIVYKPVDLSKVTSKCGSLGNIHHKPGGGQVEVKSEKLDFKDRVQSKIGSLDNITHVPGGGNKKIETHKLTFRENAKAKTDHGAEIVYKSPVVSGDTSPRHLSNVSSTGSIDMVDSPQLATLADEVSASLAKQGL
Method: as §2, §3

A450 avg. | Binder
2.39 | B2
1.8 | B3
2.69 | B4
2.33 | B5
0.939 | B6

What follows are binders tested against human Tau splice isoform 1N3R (Tau381) (human, UniProt P10636 1-758) (assay: Fab ELISA).
Chain of human Tau splice isoform 1N3R (Tau381) (P10636 other isoform, or with tags, fused parts or gaps limits assumed): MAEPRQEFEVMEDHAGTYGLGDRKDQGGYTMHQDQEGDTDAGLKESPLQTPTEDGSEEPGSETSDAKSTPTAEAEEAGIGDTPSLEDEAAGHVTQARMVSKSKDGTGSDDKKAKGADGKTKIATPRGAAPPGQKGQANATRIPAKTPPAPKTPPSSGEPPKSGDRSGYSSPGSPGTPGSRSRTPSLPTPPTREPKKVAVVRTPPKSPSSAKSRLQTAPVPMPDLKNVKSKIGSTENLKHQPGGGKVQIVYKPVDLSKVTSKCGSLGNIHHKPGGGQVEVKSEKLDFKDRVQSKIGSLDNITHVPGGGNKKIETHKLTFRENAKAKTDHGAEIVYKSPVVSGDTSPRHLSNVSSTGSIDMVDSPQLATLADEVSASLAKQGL
Method: as §2, §3

A450 avg. | Binder
2.59 | B2
2.16 | B3
2.7 | B4
2.58 | B5
1.49 | B6

The binders below were run against human Tau splice isoform 2N3R (Tau410) (human, UniProt P10636 1-758) (assay: Fab ELISA).
Chain of human Tau splice isoform 2N3R (Tau410) (P10636 other isoform, or with tags, fused parts or gaps limits assumed): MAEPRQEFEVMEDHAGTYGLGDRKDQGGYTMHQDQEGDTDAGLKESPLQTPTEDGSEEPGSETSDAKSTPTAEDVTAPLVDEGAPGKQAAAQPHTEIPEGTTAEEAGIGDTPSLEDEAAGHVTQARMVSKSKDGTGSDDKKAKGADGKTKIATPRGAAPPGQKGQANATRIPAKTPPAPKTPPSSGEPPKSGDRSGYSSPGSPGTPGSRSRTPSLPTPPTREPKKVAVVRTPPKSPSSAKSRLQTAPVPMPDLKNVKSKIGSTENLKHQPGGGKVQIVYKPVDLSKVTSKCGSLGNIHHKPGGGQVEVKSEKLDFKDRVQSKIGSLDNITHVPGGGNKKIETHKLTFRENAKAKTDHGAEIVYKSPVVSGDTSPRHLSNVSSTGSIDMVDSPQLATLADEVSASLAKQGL
Method: as §2, §3

A450 avg. | Binder
2.52 | B2
2 | B3
2.75 | B4
2.54 | B5
1.46 | B6

The binders below were run against mouse Tau (mouse, UniProt P10637 2-733) (assay: Fab ELISA).
Chain of mouse Tau (P10637 other isoform, or with tags, fused parts or gaps limits assumed): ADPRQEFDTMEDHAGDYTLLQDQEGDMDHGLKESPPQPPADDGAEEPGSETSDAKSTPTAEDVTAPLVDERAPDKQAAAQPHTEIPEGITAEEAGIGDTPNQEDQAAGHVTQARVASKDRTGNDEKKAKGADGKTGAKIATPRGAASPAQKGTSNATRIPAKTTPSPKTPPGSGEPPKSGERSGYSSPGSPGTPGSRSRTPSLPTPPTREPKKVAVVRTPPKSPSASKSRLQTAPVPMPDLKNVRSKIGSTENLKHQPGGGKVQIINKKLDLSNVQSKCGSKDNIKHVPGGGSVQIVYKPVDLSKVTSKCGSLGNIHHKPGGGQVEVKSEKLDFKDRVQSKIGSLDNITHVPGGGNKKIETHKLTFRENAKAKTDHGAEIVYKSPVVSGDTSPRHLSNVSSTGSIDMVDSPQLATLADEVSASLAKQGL
Method: as §2, §3

A450 avg. | A450 | Binder
1.95 |  | B2
1.51 |  | B3
0.06 | 0.06 | B4
2.07 |  | B5
1.1 |  | B6

These binders were tested against human Tau splice isoform 0N4R (Tau383) (human, UniProt P10636 1-758) (assay: Fab ELISA).
Chain of human Tau splice isoform 0N4R (Tau383) (P10636 other isoform, or with tags, fused parts or gaps limits assumed): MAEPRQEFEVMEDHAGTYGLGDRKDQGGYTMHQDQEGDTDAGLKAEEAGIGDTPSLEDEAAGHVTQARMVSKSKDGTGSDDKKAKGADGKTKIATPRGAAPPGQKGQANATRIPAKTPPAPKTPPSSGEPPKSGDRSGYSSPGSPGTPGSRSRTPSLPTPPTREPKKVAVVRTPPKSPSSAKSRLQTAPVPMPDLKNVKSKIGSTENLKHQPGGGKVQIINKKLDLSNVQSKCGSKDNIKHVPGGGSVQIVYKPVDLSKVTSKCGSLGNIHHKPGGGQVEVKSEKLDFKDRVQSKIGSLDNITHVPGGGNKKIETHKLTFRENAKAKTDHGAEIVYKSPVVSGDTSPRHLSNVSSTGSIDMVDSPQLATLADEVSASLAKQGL
Method: as §2, §3

A450 avg. | Binder
2.37 | B2
1.88 | B3
2.66 | B4
2.48 | B5
1.19 | B6

These binders were tested against T4, N-terminal truncated human Tau (Tau(50-441)) (human, UniProt P10636 50-758) (assay: Fab ELISA).
T4 construct: also called 50-441 (2N4R)
T4 sequence (P10636 other isoform, or with tags, fused parts or gaps limits assumed): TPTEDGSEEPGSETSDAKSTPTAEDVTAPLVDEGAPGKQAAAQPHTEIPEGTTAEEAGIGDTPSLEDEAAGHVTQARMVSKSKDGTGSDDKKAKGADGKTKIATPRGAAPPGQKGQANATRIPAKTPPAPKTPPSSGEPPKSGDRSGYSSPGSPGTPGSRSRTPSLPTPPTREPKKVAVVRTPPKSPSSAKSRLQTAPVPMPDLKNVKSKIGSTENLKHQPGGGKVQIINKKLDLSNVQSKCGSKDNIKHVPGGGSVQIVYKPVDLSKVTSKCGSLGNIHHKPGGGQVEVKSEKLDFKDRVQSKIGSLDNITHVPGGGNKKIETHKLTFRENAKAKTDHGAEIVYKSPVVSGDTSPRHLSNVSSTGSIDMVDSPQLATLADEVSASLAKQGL
Method: as §2, §3

A450 avg. | Binder
1.8 | B2
1.68 | B3
2.3 | B4
2.08 | B5
1.13 | B6

What follows are binders tested against human Tau splice isoform 0N3R (Tau352) (human, UniProt P10636 1-758) (assay: Fab ELISA).
Chain of human Tau splice isoform 0N3R (Tau352) (P10636 other isoform, or with tags, fused parts or gaps limits assumed): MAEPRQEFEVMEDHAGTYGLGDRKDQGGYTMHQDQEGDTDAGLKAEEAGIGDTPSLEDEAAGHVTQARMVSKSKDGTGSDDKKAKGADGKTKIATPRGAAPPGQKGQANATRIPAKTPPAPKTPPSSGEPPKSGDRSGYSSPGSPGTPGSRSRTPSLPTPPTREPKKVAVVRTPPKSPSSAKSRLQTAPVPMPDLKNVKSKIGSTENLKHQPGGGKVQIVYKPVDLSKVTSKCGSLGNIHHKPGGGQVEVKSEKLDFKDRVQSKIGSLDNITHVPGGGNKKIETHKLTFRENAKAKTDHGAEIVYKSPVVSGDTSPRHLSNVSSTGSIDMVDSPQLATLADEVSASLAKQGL
Method: as §2, §3

A450 avg. | Binder
1.54 | B2
0.725 | B3
2.4 | B4
1.19 | B5
0.323 | B6

The binders below were run against T1, full-length human Tau (Tau441; 2N4R), … (assay: Fab ELISA).
Method: as §2, §3

A450 avg. | Binder
2.5 | B2
2.04 | B3
2.73 | B4
2.57 | B5
1.47 | B6

What follows are binders tested against T5, cynomolgus monkey Tau (cynomolgus monkey, UniProt P57786 2-459 (rhesus entry)) (assay: Fab ELISA).
T5 construct: also called cyno Tau; cyno-Tau
T5 sequence (P57786 other isoform, or with tags, fused parts or gaps limits assumed): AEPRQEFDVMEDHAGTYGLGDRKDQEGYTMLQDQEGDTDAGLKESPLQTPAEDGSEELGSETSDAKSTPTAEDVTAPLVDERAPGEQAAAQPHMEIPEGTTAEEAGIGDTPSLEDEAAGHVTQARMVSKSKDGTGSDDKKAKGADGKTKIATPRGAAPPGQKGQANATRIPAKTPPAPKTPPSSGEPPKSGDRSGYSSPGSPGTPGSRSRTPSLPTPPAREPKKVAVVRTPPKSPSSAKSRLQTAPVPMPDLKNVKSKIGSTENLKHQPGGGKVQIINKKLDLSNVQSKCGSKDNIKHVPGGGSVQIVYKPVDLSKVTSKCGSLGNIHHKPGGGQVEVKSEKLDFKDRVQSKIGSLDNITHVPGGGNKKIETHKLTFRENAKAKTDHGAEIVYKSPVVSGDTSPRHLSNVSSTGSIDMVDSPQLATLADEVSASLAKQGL
Method: as §2, §3

A450 avg. | Binder
1.81 | B2
1.53 | B3
2.31 | B4
1.9 | B5
0.867 | B6

These binders were tested against T1, full-length human Tau (Tau441; 2N4R), … (assay: SPR Biacore, IgG captured, r-Tau injected).
Method: The affinity of chimeric IgG antibodies 1C7, 1A1, 1A5, 1D10, and 1G7 for recombinant Tau was determined by surface plasmon resonance using a Biacore™ T200 instrument. Biacore™ Series S CM5 sensor chips were immobilized with monoclonal mouse anti-human IgG (Fc) antibody (human antibody capture kit from GE Healthcare). 1 μg/mL of antibody was captured for 1 minute on each flow cell and serial 3-fold dilutions of recombinant Tau were injected at a flow rate of […]. Each sample was analyzed with a 3-minute association and a 10-minute dissociation. After each injection the chip was regenerated using 3M MgCl₂. Binding response was corrected by subtracting the RU from a flow cell capturing an irrelevant IgG at similar density. A 1:1 Languir model of simultaneous fitting of kₒₙ and koff was used for kinetics analysis.

Kd [nM] | Binder
0.2 | B1

Each binder was assayed against T1, full-length human Tau (Tau441; 2N4R), … (assay: Octet binning on biotin-r-Tau; competitor 1G7).
Method: as §1

normalized binding of second antibody | Binder
0.84 | B1

The binders below were run against T1, full-length human Tau (Tau441; 2N4R), … (assay: Octet binning on biotin-r-Tau; competitor 1A5).
Method: as §1

normalized binding of second antibody | Binder
0.88 | B1

The binders below were run against T1, full-length human Tau (Tau441; 2N4R), … (assay: SPR Biacore).

Kd | Binder
0.8 nM and 0.44 nM | B1

What follows are binders tested against T1, full-length human Tau (Tau441; 2N4R), … (assay: Octet binning on biotin-r-Tau; competitor 1D10).
Method: as §1

normalized binding of second antibody | Binder
0.82 | B1

These binders were tested against T1, full-length human Tau (Tau441; 2N4R), … (assay: Octet binning on biotin-r-Tau; competitor 1C7).
Method: as §1

normalized binding of second antibody | Binder
0.03 | B1
